The results in this text go back to the supplement of paper PMC12042874.

± gives the uncertainty stated by the source.

The nature of this data set: amyloid nucleation score (Sup35N fusion, yeast selection) (log enrichment); library NNK1; higher = more nucleation; inactive = no reads after selection. The method in brief:
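For the nucleation score, DiMSum gave the log enrichment of output over input reads, centred on the mode score of non-aggregating sequences. Psi-negative yeast expressing Sup35N fused to peptides of 20 random codons were induced with 100 μM copper sulfate for 24 hours and grown 7 days at 30°C on medium lacking adenine and uracil. Input and output plasmid inserts were Illumina-sequenced, and sequences with under 100 input reads were excluded.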
Consider NSMNLNG, for which the amyloid nucleation score result is “inactive”.

NSRSGLMNLVEKSLLYKMLY registered an amyloid nucleation score of -0.007 ± 0.48.

NSRSVVLMSVDFIILGYDKM displayed an amyloid nucleation score of 3.56 ± 0.17.

Regarding NSSPNKCFAGSQGSFISFWD, the amyloid nucleation score is -0.599 ± 0.62.

In the case of NSWVSINMCNVFGPHCMWTV, the amyloid nucleation score was 7.21 ± 0.074.

With NSYLSND, the amyloid nucleation score entry was “inactive”.

NTAFSERTWLVRFKMVPRWK yielded an amyloid nucleation score of 0.647 ± 0.83.

NTDYSQAGVCGSRCLNSAL showed an amyloid nucleation score of 1.54 ± 0.69.

As for NTISMFDMLQISKTSQHQFA, the amyloid nucleation score was determined as 0.387 ± 0.45.

NTLYYRSFRAIQLPGGENQN yielded an amyloid nucleation score of -1.09 ± 1.9.

Consider NTQNRSEVNQGVVGQVR, for which the amyloid nucleation score is -0.378 ± 0.36.

As to NTVRNMSVNELFVSFDRGWF, the amyloid nucleation score was determined as 4.83 ± 0.063.

Consider NVGVRLMCVSWSVHDQLA, for which the amyloid nucleation score came to 1.66 ± 0.35.

The substance NVHWRDVGGMLFRRNNIRRI registered an amyloid nucleation score of 5.222 ± 0.052.

On to NVIFPTYRFVRFPSYMTLGW, for which the amyloid nucleation score result was “inactive”.

The substance NVIGISATNASLSLVLISVI showed an amyloid nucleation score of -0.509 ± 0.32.

As for NVIID, the amyloid nucleation score entry is “inactive”.

In turn, NVIRTQQSR displayed an amyloid nucleation score of 0.208 ± 0.52.

Consider NVISRSLVMYMYKEERPASA, for which the amyloid nucleation score stood at 0.031 ± 0.27.

The substance NVLGLFQLRDSTQNGAMYIL gave an amyloid nucleation score of 0.076 ± 0.62.

For NVLTVCCVGLIKSSVSLIEN, the amyloid nucleation score stood at 8.418 ± 0.065.

Take NVRGSWVIMCYFTYVWMLGR: the amyloid nucleation score stood at 0.017 ± 0.35.

NVRYFLWGNAETIYL returned an amyloid nucleation score of 0.769 ± 0.29.

For the substance NVSISVR, the amyloid nucleation score was -0.054 ± 0.38.

With NVSKDS, the amyloid nucleation score is -0.063 ± 0.54.

NVVYMYSSASEYVWHRRLGF yielded an amyloid nucleation score of -0.993 ± 0.43.

Regarding NVWSKWCERGNSDPIVPQAA, the amyloid nucleation score was -0.458 ± 0.35.

NVYAMCTITMNYSVVVTHSC: the amyloid nucleation score is 3.35 ± 0.15.

Substance NVYSIYIINYMAYKVFWDMI had an amyloid nucleation score of -0.116 ± 0.29.

In turn, NWGCFQYSGTGNRLGTNAPV came in with an amyloid nucleation score of -0.999 ± 0.68.

As to NWIVCRPDAGMQPRTNNLIV, the amyloid nucleation score is -0.536 ± 0.58.

The substance NWLFRQCGSQMMVYVFEFFY displayed an amyloid nucleation score of -0.776 ± 0.59.

As to NWNCICFLDPISRDTLYPQ, the amyloid nucleation score was found to be 8.489 ± 0.046.

NWVLHIRDCRAKALPLITDW showed an amyloid nucleation score of -0.034 ± 0.45.

Take NYFSQKWFTTGRTPRMMDMW: the amyloid nucleation score is -0.007 ± 0.32.

The substance NYHMIVRLASLKKQW gave an amyloid nucleation score of 0.109 ± 0.46.

Substance NYICMGP yielded an amyloid nucleation score of 1.38 ± 0.41.

With NYITCC, the amyloid nucleation score was 1.37 ± 0.1.

In turn, NYLTHG returned an amyloid nucleation score of 0.311 ± 0.37.

PAALAWTNFLKASYDLKMGA showed an amyloid nucleation score of -0.587 ± 1.3.

PAGNNYDNNVSNNGTCKEFW registered an amyloid nucleation score of 0.294 ± 0.28.

Turning to PANSSMSSNY, the amyloid nucleation score was found to be 0.091 ± 1.5.

PCALGECRLVNSVISRGFGR showed an amyloid nucleation score of 0.38 ± 1.2.

On to PCLSDMRLTSAEKGFV, for which the amyloid nucleation score is 0.455 ± 0.69.

The substance PCSFNA showed an amyloid nucleation score of -0.267 ± 0.72.

Turning to PCTPYLSTYVPLNEK, the amyloid nucleation score was -0.017 ± 0.31.

On to PDDNMMVLGVSSADNLLIRL, for which the amyloid nucleation score worked out at 0.579 ± 0.66.

Substance PDNRAINVFTLPVAVS displayed an amyloid nucleation score of 0.71 ± 0.44.

The substance PEAPPLLIVSGFN returned an amyloid nucleation score of 1.2 ± 0.79.

PECTSVRATGIGDWWEDRGA showed an amyloid nucleation score of -1.46 ± 2.7.

Take PELAGRLSVRDLLW: the amyloid nucleation score is 0.059 ± 0.47.

For the substance PESCANSWSMSYGAFGAVYC, the amyloid nucleation score entry was “inactive”.

Substance PETIW registered an amyloid nucleation score of 1.49 ± 0.5.

In the case of PEVSIFFLFLGMVYLMWQWV, the amyloid nucleation score is -0.839 ± 0.7.

Turning to PFINVLSICLLIWALVPVDS, the amyloid nucleation score result is “inactive”.

Take PFQYADGTFF: the amyloid nucleation score stood at 4 ± 0.15.

PFRSFLCRVIRALGLY showed an amyloid nucleation score of 0.212 ± 0.95.
